Sequences and labels used below:
B1: sQa3Δ, soluble Qa (Vam3) with amino acyl residues 1–235 (domain or fragment, Saccharomyces cerevisiae, UniProt Q12241 1-235, looked up)
chain: MSFFDIEAQSSKGNSQQEPQFSTNQKTKELSNLIETFAEQSRVLEKECTKIGSKRDSKELRYKIETELIPNCTSVRDKIESNILIHQNGKLSADFKNLKTKYQSLQQSYNQRKSLFPLKTPISPGTSKERKDIHPRTEAVRQDPESSYISIKVNEQSPLLHNEGQHQLQLQEEQEQQQQGLSQEELDFQTIIHQERSQQIGRIHTAVQEVNAIFHQLGSLVKEQGEQVTTIDENI
notes: Vam3 of Saccharomyces cerevisiae, residues 1-235; lacks the regions C-terminal to the +3 layer of the SNARE domain; also called GST-sQa3Δ; GST-Qa (Vam3)3Δ; source: E. coli Rosetta2 (DE3)-pLysS, purified (glutathione agarose), GST tag removed by TEV protease
B2: his6-R (Nyv1), full-length R-SNARE with a 6his-tag on its N-terminus (natural protein, Saccharomyces cerevisiae, UniProt Q12255 1-253, looked up)
chain: MKRFNVSYVEVIKNGETISSCFQPFQKNENYGTITSANEQITPVIFHNLIMDMVLPKVVPIKGNKVTKMSMNLIDGFDCFYSTDDHDPKTVYVCFTLVDMPKILPIRILSGLQEYESNATNELLSSHVGQILDSFHEELVEYRNQTLNSSGNGQSSNGNGQNTISDIGDATEDQIKDVIQIMNDNIDKFLERQERVSLLVDKTSQLNSSSNKFRRKAVNIKEIMWWQKVKNITLLTFTIILFVSAAFMFFYLW
notes: Nyv1, the vacuolar R-SNARE of Saccharomyces cerevisiae, full length with its membrane anchor; construct as in the cited work (PMID:22174414); also called His-R (Nyv1); source: E. coli, purified; not shown: His6, N-terminal, kept
B3: sQb3Δ, soluble Qb (Vti1) with amino acyl residues 1–160 (domain or fragment, Saccharomyces cerevisiae, UniProt Q04338 1-160, looked up)
chain: MSSLLISYESDFKTTLEQAKASLAEAPSQPLSQRNTTLKHVEQQQDELFDLLDQMDVEVNNSIGDASERATYKAKLREWKKTIQSDIKRPLQSLVDSGDRDRLFGDLNASNIDDDQRQQLLSNHAILQKSGDRLKDASRIANETEGIGSQIMMDLRSQRE
notes: Vti1 of Saccharomyces cerevisiae, residues 1-160; lacks the regions C-terminal to the +3 layer of the SNARE domain; also called GST-sQb3Δ; GST-Qb (Vti1)3Δ; source: E. coli Rosetta2 (DE3)-pLysS, purified (glutathione agarose), GST tag removed by TEV protease
B4: Qb (Vti1), full-length (natural protein, Saccharomyces cerevisiae, UniProt Q04338 1-217, looked up)
chain: MSSLLISYESDFKTTLEQAKASLAEAPSQPLSQRNTTLKHVEQQQDELFDLLDQMDVEVNNSIGDASERATYKAKLREWKKTIQSDIKRPLQSLVDSGDRDRLFGDLNASNIDDDQRQQLLSNHAILQKSGDRLKDASRIANETEGIGSQIMMDLRSQRETLENARQTLFQADSYVDKSIKTLKTMTRRLVANKFISYAIIAVLILLILLVLFSKFK
notes: Vti1, the vacuolar Qb-SNARE of Saccharomyces cerevisiae, full length with its transmembrane anchor; whether GST was removed is told only in the cited work; also called GST-Qb (Vti1); source: E. coli, purified

Experiment [1] concerns the target B2. Nature of the experiment: pull-down; his6-R held on nickel-NTA agarose; 2.5 µM of each SNARE (R and three Q-SNAREs mixed), Buffer 151 (20 mM HEPES-NaOH, pH 7.4, 150 mM NaCl, 10% glycerol, 1% ß-OG, 20 mM imidazole), 4°C, 2 hr then 1 hr on beads; immunoblot. The conditions noted are these: both partners purified. Background: Immunoblotting shows a protein as a band on a membrane.

In the next experiment the target is T1, Qa (Vam3), full-length (Saccharomyces cerevisiae, UniProt Q12241 1-283).
T1 construct: Vam3, the vacuolar Qa-SNARE of Saccharomyces cerevisiae, full length with its transmembrane anchor; whether GST was removed is told only in the cited work; also called GST-Qa (Vam3); source: E. coli, purified
T1 sequence (looked up): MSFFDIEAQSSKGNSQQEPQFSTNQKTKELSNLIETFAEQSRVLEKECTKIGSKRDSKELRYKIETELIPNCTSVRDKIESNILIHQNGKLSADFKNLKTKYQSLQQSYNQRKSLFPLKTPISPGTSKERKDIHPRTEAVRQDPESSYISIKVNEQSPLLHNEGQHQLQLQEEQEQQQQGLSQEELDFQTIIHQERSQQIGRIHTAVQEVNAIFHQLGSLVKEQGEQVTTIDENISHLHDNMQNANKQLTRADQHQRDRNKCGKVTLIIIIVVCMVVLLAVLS
The experiment is described as above. The conditions noted are these: both partners purified.

In the case of B1, the binding result in experiment [1] is reported as “binds”.
As to B2, the binding result with Qa (Vam3), full-length is given as “binds”.
Regarding B3, the binding result in experiment [1] is “binds”.
For B4, in experiment [1], the binding result was “binds”.

Values taken from paper PMC8143792, “Sec17/Sec18 can support membrane fusion without help from completion of SNARE zippering” (eLife, 2021).
